Assay results as given in US20240417436A1 (BRIGHT PEAK THERAPEUTICS, published 2024).
*1 amine or outer side, *2 acyl side, *3 side chain or, on linkers, in order; H or OH if unused. Bridges are numbered along the chain shown (N, C = ends). Primed or numbered codes have the meaning given here. Side-chain parts run from the residue outwards. [ ]: non-standard residue; d: D form. Ygp″ = O-(PEG8-amino)-tyrosine (O-(8x polyethylene glycol-amino)-tyrosine); Yn3″ = O-(PEG9-azido)-tyrosine (O-(9x polyethylene glycol-azido)-tyrosine); Ygp = O-(8x polyethylene glycol-amino)-tyrosine; Yn3 = O-(9x polyethylene glycol-azido)-tyrosine; PABC = O=C(OCc1ccc(N[*:1])cc1)[*:2]; Ygp(3) = O-(PEG8-amino)-tyrosine; Yn3(3) = O-(PEG9-azido)-tyrosine; Cit = NC(=O)NCCC[C@H](N)C(=O)O; hSer = N[C@@H](CCO)C(=O)O; Nle = CCCC[C@H](N)C(=O)O; Dab = NCC[C@H](N)C(=O)O

T1: IL-2 receptor βγ complex on pan T cells (human, UniProt P14784 27-551; P31785 23-369)
T1 sequence (looked up) 1: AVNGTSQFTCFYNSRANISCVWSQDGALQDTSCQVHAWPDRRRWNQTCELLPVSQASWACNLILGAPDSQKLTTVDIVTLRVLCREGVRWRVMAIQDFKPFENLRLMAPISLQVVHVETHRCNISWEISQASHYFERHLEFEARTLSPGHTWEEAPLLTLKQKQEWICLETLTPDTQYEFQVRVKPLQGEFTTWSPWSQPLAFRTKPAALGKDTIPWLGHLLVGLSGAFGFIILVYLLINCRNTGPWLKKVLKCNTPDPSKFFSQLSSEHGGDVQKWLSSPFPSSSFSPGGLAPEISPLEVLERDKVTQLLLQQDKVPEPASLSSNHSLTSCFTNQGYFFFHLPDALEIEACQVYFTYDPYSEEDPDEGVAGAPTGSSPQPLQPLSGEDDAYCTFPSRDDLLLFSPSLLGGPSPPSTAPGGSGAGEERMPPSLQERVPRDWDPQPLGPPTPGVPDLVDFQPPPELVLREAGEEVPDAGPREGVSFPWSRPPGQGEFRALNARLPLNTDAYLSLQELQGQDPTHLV
T1 sequence (looked up) 2: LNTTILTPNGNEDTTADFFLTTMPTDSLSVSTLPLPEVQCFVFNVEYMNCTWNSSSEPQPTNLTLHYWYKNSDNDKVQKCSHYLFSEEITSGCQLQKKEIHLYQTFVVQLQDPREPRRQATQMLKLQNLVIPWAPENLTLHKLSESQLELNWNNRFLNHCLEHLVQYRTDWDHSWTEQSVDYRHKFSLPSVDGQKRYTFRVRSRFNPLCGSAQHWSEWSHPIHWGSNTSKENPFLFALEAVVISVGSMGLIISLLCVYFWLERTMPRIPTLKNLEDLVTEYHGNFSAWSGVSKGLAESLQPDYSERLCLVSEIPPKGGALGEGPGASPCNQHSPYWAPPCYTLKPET

T2: recombinant human IL-2 receptor beta containing a His-tag and Avi-Tag (R&D Systems #AVI10459) (human, UniProt P14784 27-239)
T2 construct: bought protein, held on the Octet SAX2 sensor; also called CD122; IL-2Rβ
T2 sequence (looked up): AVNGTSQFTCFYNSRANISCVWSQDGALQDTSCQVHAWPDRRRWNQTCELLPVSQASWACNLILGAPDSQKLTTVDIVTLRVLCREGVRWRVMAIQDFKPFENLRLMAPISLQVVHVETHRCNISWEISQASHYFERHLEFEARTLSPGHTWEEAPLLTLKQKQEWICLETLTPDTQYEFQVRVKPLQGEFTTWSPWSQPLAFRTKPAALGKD

T3: Avi-Tag Fc with human IL-2R beta and IL-2R gamma attached (Acrobiosystems ACRB-ILG-H82F3-25UG) (human, UniProt P14784 27-239; P31785 23-262)
T3 construct: bought heterodimer; also called CD122 CD132; CD122/CD132 complex
T3 sequence (looked up) 1: T2 sequence (looked up)
T3 sequence (looked up) 2: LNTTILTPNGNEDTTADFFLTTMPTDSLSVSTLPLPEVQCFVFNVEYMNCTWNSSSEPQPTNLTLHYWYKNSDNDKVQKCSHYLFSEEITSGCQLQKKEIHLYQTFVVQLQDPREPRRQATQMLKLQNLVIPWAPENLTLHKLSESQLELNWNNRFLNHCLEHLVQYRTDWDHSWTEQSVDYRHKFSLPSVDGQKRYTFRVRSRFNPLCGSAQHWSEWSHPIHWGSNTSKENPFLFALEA

B1: CMP-165, MMP2 cleaved (ligand)
chain: APTSSSTKKTQLQLEHLLLDLQKILNGINNYKNPKLTR[Nle]L[hSer][Yn3]KF[Ygp][Nle]PKKATELKHLQCLEEELKPLEEVL[hSer]LAQSKNFHLRPRDLISNINVIVLELKGSETTF[hSer]CEYADETATIVEFLNRWITFSQSIISTLT
modifications: disulfide 58-105 (inferred); not fully specified (residue 23, N-terminus); also: MMP2 cleaved, ring opened, cut site not given here, peptide remnants on N-terminus (via glutaryl) and on Lys23 side chain
B2: CMP-168, MMP2 cleaved (ligand)
chain: APTSSSTKKTQLQLEHLLLDLQEILNGINNYKNPKLTR[Nle]L[hSer][Yn3]KF[Ygp][Nle]PKKATELKHLQCLEEELKPLEEVL[hSer]LAQSKNFHLRPRDLISNINVIVLELKGSETTF[hSer]CEYADETATIVEFLNRWITFSQSIISTLT
modifications: disulfide 58-105 (inferred); not fully specified (residues 9, 23); also: cleaved by MMP2, bridge opened, remnants on Lys9 and Glu23 not defined
B3: CMP-166, MMP2 cleaved (ligand)
chain: APTSSSTKKTQLQLEHLLLDLQKILNGINNYKNPKLTRXLXYKFYXPKKATELKHLQCLEEELKPLEEVLXLAQSKNFHLRPRDLISNINVIVLELKGSETTFXCEYADETATIVEFLNRWITFSQSIISTLT
modifications: not fully specified; as CMP-166 but cleavable peptide cut by MMP2 (macrocycle opened); cut site not given
B4: CMP-167, MMP2 cleaved (ligand)
chain: B3 chain
modifications: not fully specified; as CMP-167 but cleavable peptide cut by MMP2 (macrocycle opened); cut site not given
B5: CMP-145 (ligand)
chain: APTSSSTKKTQLQLEHLLLDLQKILNGINNYKNPKLTR[Nle]L[hSer][Yn3]KF[Ygp][Nle]PKKATELKHLQCLEEELKPLEEVL[hSer]LAQSKNFHLRPRDLISNINVIVLELKGSETTF[hSer]CEYADETATIVEFLNRWITFSQSIISTLT
modifications: disulfide 58-105; not fully specified (residue 23); also: branched 27x PEG chains on the attached KKPLGLAG peptide, places not given here
B6: CMP-130 (ligand)
chain: APTSSSTKKTQLQLE[Dab]LLLDLQ[Nle]ILNGINNYKNPKLTR[Nle]L[hSer][Yn3(3)]KF[Ygp(3)][Nle]PKKATELKHLQCLEEELKPLEEVL[hSer]LAQSKNFHLRPRDLISNINVIVLELKGSETTF[hSer]CEYADETATIVEFLNRWITFSQSIISTLT
B7: CMP-131 (ligand)
chain: APTSSSTKKTQLQLEK([PABC-Cit-Val-Glu-Ac])LLLDLQ[Nle]ILNGINNYKNPKLTR[Nle]L[hSer][Yn3″]KF[Ygp″][Nle]PKKATELKHLQCLEEELKPLEEVL[hSer]LAQSKNFHLRPRDLISNINVIVLELKGSETTF[hSer]CEYADETATIVEFLNRWITFSQSIISTLT
modifications: not fully specified; ends and bridges not checked

What follows are binders tested against T1, IL-2 receptor βγ complex on pan T cells (assay: cell-based or functional assay).

| Binder | Average EC50, pSTAT5 assay in pan T cells, MMP2 cleaved molecule |
| --- | --- |
| B1 | 1.42 nM |
| B2 | 6.3 nM |
| B3 | 4.36 nM |
| B4 | 5.31 nM |

Each binder was assayed against T2, recombinant human IL-2 receptor beta … (assay: BLI (Octet), receptor on SAX2 sensor, IL-2 as analyte; construct CMP-145).
Description: (§1) Bilayer interferometry (BLI) assays were used to measure the binding constants between activatable IL-2 polypeptides (and activated versions thereof) to IL-2 receptor subunits or receptor complexes. BLI assays were conducted on an Octet® R8 instrument. Assay plates were 96 well, polypropylene, F-bottom (chimney well), black microplates (Greiner Bio-one, Cat. No: 655209). The biosensors were Octet® SAX2 (Sartorius, Cat. No: 18-5136). The assay buffer was 1× Kinetic Buffer (Sartorius, Cat. no: 18-5136) or Phosphate Buffered Saline (PBS) that contained 0.02% (v: v) Tween 20 (Polysorbate 20) and 0.1% (w/v) bovine serum albumin (BSA). The sensor was regenerated between measurements in 10 mM glycine pH 2.7 buffer.
(§2) Sensor attached receptors were either recombinant human IL-2 receptor beta containing a His-tag and Avi-Tag™ (R&D Systems™ #AVI10459) or an Avi-Tag™ Fc with human IL-2R beta and IL-2R gamma attached (Acrobiosystems Cat. no: ACRB-ILG-H82F3-25UG). Receptors were reconstituted from lyophilized powder to 500 μg/ml in PBS. Analytes were diluted in Kinetic buffer to 300 nM, then serially diluted to lower concentrations.

| Binder | Kd |
| --- | --- |
| B5 | 1.83 µM |

Each binder was assayed against T2, recombinant human IL-2 receptor beta … (assay: BLI (Octet), receptor on SAX2 sensor, MMP2-treated IL-2 as analyte).
Description: as §1, §2

| Binder | Kd | koff | kon |
| --- | --- | --- | --- |
| B1 | 1.11 µM | 0.237 s⁻¹ | 213000 M⁻¹ s⁻¹ |
| B2 | 1370 µM | 1.08 s⁻¹ | 789 M⁻¹ s⁻¹ |
| B3 | 0.794 µM | 0.225 s⁻¹ | 283000 M⁻¹ s⁻¹ |
| B4 | 0.658 µM | 0.227 s⁻¹ | 345000 M⁻¹ s⁻¹ |

The binders below were run against T3, Avi-Tag Fc with human IL-2R beta and … in the same assay as above.
Description: as §1, §2

| Binder | Kd | koff | kon |
| --- | --- | --- | --- |
| B1 | 0.00187 µM | 0.00114 s⁻¹ | 608000 M⁻¹ s⁻¹ |
| B2 | 0.00227 µM | 0.00164 s⁻¹ | 602000 M⁻¹ s⁻¹ |
| B3 | 0.00121 µM | 0.000684 s⁻¹ | 567000 M⁻¹ s⁻¹ |
| B4 | 0.00155 µM | 0.000923 s⁻¹ | 594000 M⁻¹ s⁻¹ |

Biological target: T1, IL-2 receptor βγ complex on pan T cells
Test: cell-based or functional assay
Remark: another data set of the same source

| Binder | Average EC50, pSTAT5 assay in pan T cells, intact molecule |
| --- | --- |
| B6 | 66.8 nM |
| B7 | 56.9 nM |

The binders below were run against T3, Avi-Tag Fc with human IL-2R beta and … (assay: BLI (Octet), receptor on SAX2 sensor, IL-2 as analyte).
Description: as §1, §2

| Binder | koff |
| --- | --- |
| B5 | 0.00117 s⁻¹ |
